The results in this text go back to patent publication US6465220B1, “Glycosylation using GalNac-T4 transferase” (GlycoZym ApS, priority 1998, dated 2002).

Series [1] deals with T1, C[C@H](NC(=O)[C@H](C)NC(=O)[C@@H](NC(=O)[C@@H](NC(=O)[C@H](CCC(=O)O)NC(=O)[C@@H]1CCCN1C(=O)[C@@H]1CCCN1C(=O)[C@H](C)NC(=O)[C@H](CO)NC(=O)[C@H](CO)NC(=O)[C@H](CO)NC(=O)[C@@H]1CCCN1C(=O)[C@@H]1CCCN1C(=O)[C@H](C)NC(=O)[C@@H]1CCCN1C(=O)[C@@H](NC(=O)[C@@H](NC(=O)[C@H](C)NC(=O)[C@H](CO)NC(=O)[C@@H]1CCCN1C(=O)[C@@H](NC(=O)[C@@H]1CCCN1C(=O)[C@@H]1CCCN1C(=O)[C@@H](N)CS)[C@@H](C)O)[C@@H](C)O)[C@@H](C)O)[C@@H](C)O)[C@@H](C)O)C(=O)O.
T1 construct: Control constructs pAcGP67-GalNAc-T1-sol, pAcGP67-GalNAc-T2-sol, pAcGP67-GalNAc-T3-sol, and pAcGP67-O^2-sol were prepared as previously described; made in house; host or cells: insect cells (baculovirus, pAcGP67)
Put plainly: GalNAc-transferase assay with purified recombinant GalNAc-T2. It is filed as biochemical, human. The note with it: other: acceptor substrate; pH 7.5. How it is done: The following examples are provided to illustrate certain preferred embodiments of the invention, and should be considered as illustration and not as limitation. In the examples, GalNAc-transferase assays were performed in 50 μl total reaction mixtures containing 25 mM cacodylate (pH 7.5), 10 mM MnCl2, 0.1-0.25% Triton X-100, 150-200 μM UDP-[^14C]-GalNAc (4,000 cpm/nmole) (Amersham) and 0.06-1 mM acceptor peptides. Peptides were either synthesized or obtained from Carlbiotech (Copenhagen), or Neosystems (Strasbourg), and quality was ascertained by amino acid analysis and mass spectrometry. […] Products were quantified by scintillation counting after chromatography on Dowex-1, octadecyl silica cartridges (Bakerbond), or HPLC (PC3.2/3 or mRPC C2/C18 SC2.1/10 Pharmacia, Smart System). […]
Activities measured with the mucin derived substrates, Muc7, EA2, and Muc2 (see Table I for structures and SEQ ID NOs:19, 25 and 18, respectively), were only 2-7 fold over background values. […] GalNAc-T4 was expressed in High Five cells and purified to near homogeneity, however, very low endogenous activity was detected with some substrates in the same fractions when medium from cells infected with irrelevant expression constructs were used in the same purification strategy. […]

For series [2], the system named is T2, C[C@H](NC(=O)[C@H](C)NC(=O)[C@@H](NC(=O)[C@@H](NC(=O)[C@H](CCC(=O)O)NC(=O)[C@@H]1CCCN1C(=O)[C@@H]1CCCN1C(=O)[C@H](C)NC(=O)[C@H](CO)NC(=O)[C@H](CO)NC(=O)[C@H](CO)NC(=O)[C@@H]1CCCN1C(=O)[C@@H]1CCCN1C(=O)[C@H](C)NC(=O)[C@@H]1CCCN1C(=O)[C@@H](NC(=O)[C@@H](NC(=O)[C@H](C)NC(=O)[C@H](CO)NC(=O)[C@@H]1CCCN1C(=O)[C@@H](NC(=O)[C@@H]1CCCN1C(=O)[C@@H]1CCCN1C(=O)[C@@H](N)CS)[C@@H](C)O)[C@@H](C)O)[C@@H](C)O)[C@@H](C)O)[C@@H](C)O)C(=O)O.
T2 construct: made in house; host or cells: High Five insect cells (baculovirus, pAcGP67 vector)
Nature of the series: GalNAc-transferase assay with purified recombinant GalNAc-T4. It is filed as biochemical, human. The note with it: other: acceptor substrate; pH 7.5.
Procedure: In the examples, GalNAc-transferase assays were performed in 50 μl total reaction mixtures containing 25 mM cacodylate (pH 7.5), 10 mM MnCl2, 0.1-0.25% Triton X-100, 150-200 μM UDP-[^14C]-GalNAc (4,000 cpm/nmole) (Amersham) and 0.06-1 mM acceptor peptides. […] Products were quantified by scintillation counting after chromatography on Dowex-1, octadecyl silica cartridges (Bakerbond), or HPLC (PC3.2/3 or mRPC C2/C18 SC2.1/10 Pharmacia, Smart System).

Chain of GalNAc-T2 (Homo sapiens) (chain, as listed by the source): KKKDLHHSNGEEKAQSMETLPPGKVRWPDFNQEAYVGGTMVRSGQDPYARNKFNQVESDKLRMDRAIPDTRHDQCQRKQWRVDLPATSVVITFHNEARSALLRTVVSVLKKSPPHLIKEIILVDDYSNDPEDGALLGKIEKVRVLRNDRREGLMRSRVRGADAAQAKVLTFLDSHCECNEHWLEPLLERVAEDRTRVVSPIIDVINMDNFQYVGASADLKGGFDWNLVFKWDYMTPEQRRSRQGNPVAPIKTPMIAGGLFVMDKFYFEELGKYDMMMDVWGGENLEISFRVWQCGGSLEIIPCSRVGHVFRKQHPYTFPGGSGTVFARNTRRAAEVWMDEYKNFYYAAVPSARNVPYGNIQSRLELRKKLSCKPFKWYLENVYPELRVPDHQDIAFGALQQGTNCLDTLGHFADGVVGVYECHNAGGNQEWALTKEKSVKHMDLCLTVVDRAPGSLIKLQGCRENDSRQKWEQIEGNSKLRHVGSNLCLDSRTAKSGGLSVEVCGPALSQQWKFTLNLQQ
Chain of GalNAc-T4 (Homo sapiens) (chain, as listed by the source): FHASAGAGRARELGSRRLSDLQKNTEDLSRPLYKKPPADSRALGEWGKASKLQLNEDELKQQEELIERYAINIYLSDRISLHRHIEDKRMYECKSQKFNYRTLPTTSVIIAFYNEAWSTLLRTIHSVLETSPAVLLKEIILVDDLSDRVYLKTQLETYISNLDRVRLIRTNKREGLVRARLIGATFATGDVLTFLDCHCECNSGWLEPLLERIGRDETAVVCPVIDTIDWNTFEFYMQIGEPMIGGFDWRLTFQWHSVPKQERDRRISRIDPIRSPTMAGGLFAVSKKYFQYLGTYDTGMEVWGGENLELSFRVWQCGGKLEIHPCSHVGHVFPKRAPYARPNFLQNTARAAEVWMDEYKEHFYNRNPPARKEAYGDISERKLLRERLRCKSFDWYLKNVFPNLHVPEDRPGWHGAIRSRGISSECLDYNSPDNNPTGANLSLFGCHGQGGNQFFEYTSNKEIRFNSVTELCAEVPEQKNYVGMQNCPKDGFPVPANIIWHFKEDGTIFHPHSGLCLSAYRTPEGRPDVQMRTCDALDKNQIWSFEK

In the case of GalNAc-T2 (Homo sapiens), in series [1], the Km was 15 µM and the Vmax was determined as 0.64 nmol/min/µg.
With GalNAc-T4 (Homo sapiens), in series [2], the Km came out at 480 µM and the Vmax worked out at 0.25 nmol/min/µg.

One may read the Km as the substrate concentration at which the rate is half of its maximum.
